By Km is commonly meant the substrate concentration at which the rate is half of its maximum.

Substrate in data set [1]: C[C@H](O)[C@H](O)[C@H]1CNc2nc(N)[nH]c(=O)c2N1
In words: purified protein, by the assay type. The conditions noted are these: other: rat liver enzyme; Km of substrate with the pterin as cofactor.

Substrate in data set [2]: C[C@H](O)[C@H](O)[C@H]1CNc2nc(N)[nH]c(=O)c2N1
Kind of data set: cells, lysate or membranes named. The conditions noted are these: other: Km of substrate with the pterin as cofactor.

B1: Phenylalanine hydroxylase (Rattus norvegicus) (protein)
chain: MAAVVLENGVLSRKLSDFGQETSYIEDNSNQNGAISLIFSLKEEVGALAKVLRLFEENDINLTHIESRPSRLNKDEYEFFTYLDKRTKPVLGSIIKSLRNDIGATVHELSRDKEKNTVPWFPRTIQELDRFANQILSYGAELDADHPGFKDPVYRARRKQFADIAYNYRHGQPIPRVEYTEEEKQTWGTVFRTLKALYKTHACYEHNHIFPLLEKYCGFREDNIPQLEDVSQFLQTCTGFRLRPVAGLLSSRDFLGGLAFRVFHCTQYIRHGSKPMYTPEPDICHELLGHVPLFSDRSFAQFSQEIGLASLGAPDEYIEKLATIYWFTVEFGLCKEGDSIKAYGAGLLSSFGELQYCLSDKPKLLPLELEKTACQEYSVTEFQPLYYVAESFSDAKEKVRTFAATIPRPFSVRYDPYTQRVEVLDNTQQLKILADSINSEVGILCNALQKIKS
Turning to B1, in data set [1], the Km is 123 µM.

B2: Tryptophan hydroxylase (Rattus norvegicus) (protein)
chain: MQPAMMMFSSKYWARRGLSLDSAVPEEHQILGGLTQNKATASKSEDKRSGKDTSESSKTAVVFSLKNEVGGLVRALRLFQEKHVNMLHIESRRSRRRSSEVEIFVDCECGKTEFNELIQLLKFQTTIVTLNPPDNIWTEEEELEDVPWFPRKISELDRCSHRVLMYGTELDADHPGFKDNVYRQRRKYFVDVAMGYKYGQPIPRVEYTEEETKTWGVVFRELSKLYPTHACREYLKNFPLLTKYCGYREDNVPQLEDVSMFLKERSGFTVRPVAGYLSPRDFLAGLAYRVFHCTQYVRHGSDPLYTPEPDTCHELLGHVPLLADPKFAQFSQEIGLASLGASDEDVQKLATCYFFTIEFGLCKQEGQLRAYGAGLLSSIGELKHALSDKACVKAFDPKTTCLQECLITTFQDAYFVSESFEEAKEKMRDFAKSITRPFSVYFNPYTQSIEILKDTRSIENVVQDLRSDLNTVCDALNKMNQYLGI
For the protein B2, in data set [2], the Michaelis-Menten constant (Km) was found to be 15 µM.
